According to patent US6441131:

Columns and labels:
peptide of Example 2(57) = target: T1, peptide of Example 2(57)
T1 chain: TLSEXX

peptide of Example 2(83) = target: T2, peptide of Example 2(83)
T2 chain: GLSEXAX

peptide of Example 2(25) = target: T3, peptide of Example 2(25)
T3 chain: PQQMXX

peptide of Example 2(34) = target: T4, peptide of Example 2(34)
T4 chain: PQDEXX

peptide of Example 2(78) = target: T5, peptide of Example 2(78)
T5 chain: LSEXAX

peptide of Example 2(18) = target: T6, peptide of Example 2(18)
T6 chain: APQQAXX

peptide of Example 2(3) = target: T7, peptide of Example 2(3)
T7 chain: PQQAXX

peptide of Example 2(39) = target: T8, peptide of Example 2(39)
T8 chain: PMSEXX

peptide of Example 2(11) = target: T9, peptide of Example 2(11)
T9 chain: PQQAXX

peptide of Example 2(80) = target: T10, peptide of Example 2(80)
T10 chain: LSEXAX

peptide of Example 2(54) = target: T11, peptide of Example 2(54)
T11 chain: KLSEXX

[1] = target: T12, Nα-Me-GlyLeuSerGluAla(2-Naph)Ala-pNA.TFMSA
T12 chain: GLSEXX

peptide of Example 2(14) = target: T13, peptide of Example 2(14)
T13 chain: KPQQAXX

peptide of Example 2(7) = target: T14, peptide of Example 2(7)
T14 chain: PQQAXX

[2] = target: T15, ProLeuSerGluAla(2-Naph)Ala-pNA
T15 chain: PLSEXX

peptide of Example 2(24) = target: T16, peptide of Example 2(24)
T16 chain: PQQGXX

peptide of Example 2(56) = target: T17, peptide of Example 2(56)
T17 chain: SLSEXX

peptide of Example 2(22) = target: T18, peptide of Example 2(22) (not fully specified)
T18 chain: PQQNXX

peptide of Example 2(16) = target: T19, peptide of Example 2(16)
T19 chain: NPQQAXX

peptide of Example 2(53) = target: T20, peptide of Example 2(53)
T20 chain: QLSEXX

peptide of Example 2(61) = target: T21, peptide of Example 2(61)
T21 chain: KNLSEXX

peptide of Example 2(33) = target: T22, peptide of Example 2(33)
T22 chain: PQEEXX

peptide of Example 2(69) = target: T23, peptide of Example 2(69)
T23 chain: XLSEXX

peptide of Example 2(45) = target: T24, peptide of Example 2(45)
T24 chain: PTSEXX

peptide of Example 2(36) = target: T25, peptide of Example 2(36)
T25 chain: PNSEXX

peptide of Example 2(51) = target: T26, peptide of Example 2(51)
T26 chain: GLSEXX

peptide of Example 2(63) = target: T27, peptide of Example 2(63)
T27 chain: PNNLSEXX

[3] = target: T28, Nα-Me-GlySerGlyAla(2-Naph)AlaAla-DCHA.TFMSA
T28 chain: GSGXAX

peptide of Example 2(23) = target: T29, peptide of Example 2(23)
T29 chain: PQQQXX

B1: human pepsin II (protein)
chain: SVTYEPMAYMDAAYFGEISIGTPPQNFLVLFDTGSSNLWVPSVYCQSQACTSHSRFNPSESSTYSTNGQTFSLQYGSGSLTGFFGYDTLTVQSIQVPNQEFGLSENEPGTNFVYAQFDGIMGLAYPALSVDEATTAMQGMVQEGALTSPVFSVYLSNQQGSSGGAVVFGGVDSSLYTGQIYWAPVTQELYWQIGIEEFLIGGQASGWCSEGCQAIVDTGTSLLTVPQQYMSALLQATGAQEDEYGQFLVNCNSIQNLPSLTFIINGVEFPLPPSSYILSNNGYCTVGVEPTYLSSQNGQPLWILGDVFLRSYYSVYDLGNNRVGFATAA
pepsin II digesting rate (µM/min · 1 µg Enz) (peptide of Example 2(57)): 18.8
ration of digesting rate (pepsin II/ pepsin I) (peptide of Example 2(57)): 661
pepsin II digesting rate (µM/min · 1 µg Enz) (peptide of Example 2(83)): 70.7
ration of digesting rate (pepsin II/ pepsin I) (peptide of Example 2(83)): 29.9
pepsin II digesting rate (µM/min · 1 µg Enz) (peptide of Example 2(25)): 5.56
ration of digesting rate (pepsin II/ pepsin I) (peptide of Example 2(25)): 890
pepsin II digesting rate (µM/min · 1 µg Enz) (peptide of Example 2(34)): 15.4
ration of digesting rate (pepsin II/ pepsin I) (peptide of Example 2(34)): 712
pepsin II digesting rate (µM/min · 1 µg Enz) (peptide of Example 2(78)): 54.4
ration of digesting rate (pepsin II/ pepsin I) (peptide of Example 2(78)): 20.7
pepsin II digesting rate (µM/min · 1 µg Enz) (peptide of Example 2(18)): 9.2
ration of digesting rate (pepsin II/ pepsin I) (peptide of Example 2(18)): 757
pepsin II digesting rate (µM/min · 1 µg Enz) (peptide of Example 2(3)): 4.23
ration of digesting rate (pepsin II/ pepsin I) (peptide of Example 2(3)): 2070
pepsin II digesting rate (µM/min · 1 µg Enz) (peptide of Example 2(39)): 45.8
ration of digesting rate (pepsin II/ pepsin I) (peptide of Example 2(39)): 201
pepsin II digesting rate (µM/min · 1 µg Enz) (peptide of Example 2(11)): 4.1
ration of digesting rate (pepsin II/ pepsin I) (peptide of Example 2(11)): 175
pepsin II digesting rate (µM/min · 1 µg Enz) (peptide of Example 2(80)): 15.8
ration of digesting rate (pepsin II/ pepsin I) (peptide of Example 2(80)): 105
pepsin II digesting rate (µM/min · 1 µg Enz) (peptide of Example 2(54)): 48.4
ration of digesting rate (pepsin II/ pepsin I) (peptide of Example 2(54)): 177
pepsin II digesting rate (µM/min · 1 µg Enz) [1]: 49.6
ration of digesting rate (pepsin II/ pepsin I) [1]: 158
pepsin II digesting rate (µM/min · 1 µg Enz) (peptide of Example 2(14)): 3.85
ration of digesting rate (pepsin II/ pepsin I) (peptide of Example 2(14)): 410
pepsin II digesting rate (µM/min · 1 µg Enz) (peptide of Example 2(7)): 3.5
ration of digesting rate (pepsin II/ pepsin I) (peptide of Example 2(7)): 104
pepsin II digesting rate (µM/min · 1 µg Enz) [2]: 55.4
ration of digesting rate (pepsin II/ pepsin I) [2]: 198
pepsin II digesting rate (µM/min · 1 µg Enz) (peptide of Example 2(24)): 12.1
ration of digesting rate (pepsin II/ pepsin I) (peptide of Example 2(24)): 2080
pepsin II digesting rate (µM/min · 1 µg Enz) (peptide of Example 2(56)): 10.9
ration of digesting rate (pepsin II/ pepsin I) (peptide of Example 2(56)): 563
pepsin II digesting rate (µM/min · 1 µg Enz) (peptide of Example 2(22)): 12.9
ration of digesting rate (pepsin II/ pepsin I) (peptide of Example 2(22)): 223
pepsin II digesting rate (µM/min · 1 µg Enz) (peptide of Example 2(16)): 8.95
ration of digesting rate (pepsin II/ pepsin I) (peptide of Example 2(16)): 1090
pepsin II digesting rate (µM/min · 1 µg Enz) (peptide of Example 2(53)): 62
ration of digesting rate (pepsin II/ pepsin I) (peptide of Example 2(53)): 621
pepsin II digesting rate (µM/min · 1 µg Enz) (peptide of Example 2(61)): 36.8
ration of digesting rate (pepsin II/ pepsin I) (peptide of Example 2(61)): 219
pepsin II digesting rate (µM/min · 1 µg Enz) (peptide of Example 2(33)): 25.4
ration of digesting rate (pepsin II/ pepsin I) (peptide of Example 2(33)): 402
pepsin II digesting rate (µM/min · 1 µg Enz) (peptide of Example 2(69)): 73.1
ration of digesting rate (pepsin II/ pepsin I) (peptide of Example 2(69)): 74.2
pepsin II digesting rate (µM/min · 1 µg Enz) (peptide of Example 2(45)): 40.5
ration of digesting rate (pepsin II/ pepsin I) (peptide of Example 2(45)): 161
pepsin II digesting rate (µM/min · 1 µg Enz) (peptide of Example 2(36)): 21.2
ration of digesting rate (pepsin II/ pepsin I) (peptide of Example 2(36)): 194
pepsin II digesting rate (µM/min · 1 µg Enz) (peptide of Example 2(51)): 54.4
ration of digesting rate (pepsin II/ pepsin I) (peptide of Example 2(51)): 334
pepsin II digesting rate (µM/min · 1 µg Enz) (peptide of Example 2(63)): 29.8
ration of digesting rate (pepsin II/ pepsin I) (peptide of Example 2(63)): 169
pepsin II digesting rate (µM/min · 1 µg Enz) [3]: 33.1
ration of digesting rate (pepsin II/ pepsin I) [3]: 120
pepsin II digesting rate (µM/min · 1 µg Enz) (peptide of Example 2(23)): 5.9
ration of digesting rate (pepsin II/ pepsin I) (peptide of Example 2(23)): 309

B2: human pepsin I (protein)
chain: VDEQPLENYLDMEYFGTIGIGTPAQDFTVVFDTGSSNLWVPSVYCSSLACTNHNRFNPEDSSTYQSTSETVSITYGTGSMTGILGYDTVQVGGISDTNQIFGLSETEPGSFLYYAPFDGILGLAYPSISSSGATPVFDNIWNQGLVSQDLFSVYLSADDQSGSVVIFGGIDSSYYTGSLNWVPVTVEGYWQITVDSITMNGEAIACAEGCQAIVDTGTSLLTGPTSPIANIQSDIGASENSDGDMVVSCSAISSLPDIVFTINGVQYPVPPSAYILQSEGSCISGFQGMNLPTESGELWILGDVFIRQYFTVFDRANNQVGLAPVA
pepsin I digesting rate (µM/min · 1 µg Enz) (peptide of Example 2(57)): 0.0284
pepsin I digesting rate (µM/min · 1 µg Enz) (peptide of Example 2(83)): 2.37
pepsin I digesting rate (µM/min · 1 µg Enz) (peptide of Example 2(25)): 0.0063
pepsin I digesting rate (µM/min · 1 µg Enz) (peptide of Example 2(34)): 0.0216
pepsin I digesting rate (µM/min · 1 µg Enz) (peptide of Example 2(78)): 2.62
pepsin I digesting rate (µM/min · 1 µg Enz) (peptide of Example 2(18)): 0.0122
pepsin I digesting rate (µM/min · 1 µg Enz) (peptide of Example 2(3)): 0.002
pepsin I digesting rate (µM/min · 1 µg Enz) (peptide of Example 2(39)): 0.228
pepsin I digesting rate (µM/min · 1 µg Enz) (peptide of Example 2(11)): 0.0235
pepsin I digesting rate (µM/min · 1 µg Enz) (peptide of Example 2(80)): 0.15
pepsin I digesting rate (µM/min · 1 µg Enz) (peptide of Example 2(54)): 0.274
pepsin I digesting rate (µM/min · 1 µg Enz) [1]: 0.313
pepsin I digesting rate (µM/min · 1 µg Enz) (peptide of Example 2(14)): 0.0094
pepsin I digesting rate (µM/min · 1 µg Enz) (peptide of Example 2(7)): 0.0335
pepsin I digesting rate (µM/min · 1 µg Enz) [2]: 0.28
pepsin I digesting rate (µM/min · 1 µg Enz) (peptide of Example 2(24)): 0.0058
pepsin I digesting rate (µM/min · 1 µg Enz) (peptide of Example 2(56)): 0.0194
pepsin I digesting rate (µM/min · 1 µg Enz) (peptide of Example 2(22)): 0.0578
pepsin I digesting rate (µM/min · 1 µg Enz) (peptide of Example 2(16)): 0.0082
pepsin I digesting rate (µM/min · 1 µg Enz) (peptide of Example 2(53)): 0.0998
pepsin I digesting rate (µM/min · 1 µg Enz) (peptide of Example 2(61)): 0.168
pepsin I digesting rate (µM/min · 1 µg Enz) (peptide of Example 2(33)): 0.0632
pepsin I digesting rate (µM/min · 1 µg Enz) (peptide of Example 2(69)): 0.985
pepsin I digesting rate (µM/min · 1 µg Enz) (peptide of Example 2(45)): 0.251
pepsin I digesting rate (µM/min · 1 µg Enz) (peptide of Example 2(36)): 0.11
pepsin I digesting rate (µM/min · 1 µg Enz) (peptide of Example 2(51)): 0.163
pepsin I digesting rate (µM/min · 1 µg Enz) (peptide of Example 2(63)): 0.176
pepsin I digesting rate (µM/min · 1 µg Enz) [3]: 0.277
pepsin I digesting rate (µM/min · 1 µg Enz) (peptide of Example 2(23)): 0.0191
